Data published in a protein production outcome set (Wang et al. 2014).

Test: label from the status in PepcDB records

Sequence | protein production
MSKVLVLKSSILAGYSQSNQLSDYFVEQWREKHSADEITVRDLAANPIPVLDGELVGALRPSDAPLTTRQQEALALSDELIAELKAHDVIVIAAPMYNFNISTQLKNYFDLVARAGVTFRYTENGPEGLVTGKKAIVITSRGGIHKDGPTDLVTPYLSTFLGFIGITDVKFVFAEGIAYGPEMAAKAQSDAKAAIDSIVAA | failed
MRVALAGRPQEALDVALPAAELPEHLRWRLRSWQADAQEALGQSAEATLLYAEAAHLAAGLNRAVMLQEQAALLLQQGDFEEARQVLERARTLYTGPRPGTDPNDEGLNLATWHYLMAQVRLNLGQPEAAQDDIREAARLEGLSGDPSYGVALVQGQVLSHLGQLEEALEAFGQALARATDPDRPYANHELGVALLDLDRPLEAREKLEEVLLVPDYPFHPEVLADIAECDYRLGRLPEAQLAAEQALNQGAVVPASVVLGNVALDYYHLDDALDHYERVVREAVHGSRDWVLGHQMAADVMAQQGFPDPAAAYAHAQQALEHTPESDDWYVTLQDHLSRAQALMGSAGGRTLN | failed
MSIEKKVGFFFIAGLVLLGVMLELGEKWNPFQKAIPYKTYLSSTTGLKLGDPVRLAGVEVGKITKIAIADSRVEVAFEVKPGTAIKADSVATIRLTNLLGGQFLGLSFGSPDAPVLPPGSAVKSRETANIDVIVDNVGDLAKDAKVLIKDLTVNQKEVFQKVSSMLDENRGNLRGAIENMNSITTKMDRGQGSLALLLNDKSLYRNTNELAASMKNVTAKIEKGEGSLGKFVNDDAFYRDAKGAVANLNDGAKDIKEIAAKINRGEGSVGKLVNDESLYNELRDASKNVGEVAKKINNGQGTLGKLVNDDTLYRDTTAAMKKLDKATEGLSDTGPISVIGSMVGTLFLEHHHHHH | not failed
MRLEKQLIKKMYYETFLMENETKPTLDVLGQAYVNEEKNEISDGSYIRFAQGEFYYRHQDFEAAIFKWEKVSNELAPWAQKNIADAYFELNQLSFAENIYTSITTDNKILMTEIRLQLLSLYIEQNNFDSAFGVIKEAVSLNPDYPNVTKIARSFYEEQQDFDSAVELAVNELIRIESYPWFEVLKGYIDKGFTKHISPDYFYDALATLNNVDQVQFTQMVSSLWNSYKNEKNYLLWLNTINEFFLHIEIHSSDIWNKVSALYEETYFALIQGQYTLRQLNDIIPNLLANWLKVVNPSYAVFPSAAVLAWDEIFPSKIDSANIEHAENLLSHSINHVNGLEYSLHLFESITQWAQKQNIEIGHRFKWLVDELADLRTNRILVTGTSGNGKTTFINSILGENILEKSISNVVVLKNDAHIEINAITDSAITTTEDVSDYHNMMSQHHQTYRDRACVEFKLPCRFLNENKLTFVVTPGFNRNNDTRDEIFEYLNSVDELLFVLNADSPFTDKERDILLSIQEHTPNLQIHFLLNKIDNIYSEAEVKRVLHDTATRINTYFPYARIFPYSSLYTSSQQLNDLTEFIHFNFNHKNIDAERTEKLLFFIRKTITYLLDKRVEKENNLVDAINWNEDMLVKLNGSINNLTTFEREKIHFITQSYRSMKTEITNDLTENIPKILKSCSNLISEESDFGHMDTELNKAMNERVHKYLEQTVLPNLALSMQNWIATSNNELLQSQTYLEELSEGLNSLFGENRIQLECDFKVLDDWRRDTDRMTTRIQMDEVNILRRFTPAQFLLKSAGKLFGVLPKNKSMLYNKYKQYVENEDYTEVTASIMKKFFLQFELFENTQERDINIFFRNPFNSLKQAVENTHLEIQEKQEILHKMKSNPEIYHDSIMLFELRLRQCEVILNIGNDNTYTDVALETSVE | failed
MRGLKTFSILGLIVALLLVAACGNTDNSSKKESSTKDTISVKDENGTVKVPKDAKRIVVLEYSFADALAALDVKPVGIADDGKKKRIIKPVREKIGDYTSVGTRKQPNLEEISKLKPDLIIADSSRHKGINKELNKIAPTLSLKSFDGDYKQNINSFKTIAKALNKEKEGEKRLAEHDKLINKYKDEIKFDRNQKVLPAVVAKAGLLAHPNYSYVGQFLNELGFKNALSDDVTKGLSKYLKGPYLQLDTEHLADLNPERMIIMTDHAKKDSAEFKKLQEDATWKKLNAVKNNRVDIVDRDVWARSRGLISSEEMAKELVELSKKEQK | failed
MSQAVLATETNRRQLQQIISGLSDGVILIETDKARTLLWANEAALAMHGVSTVEQLGGNLREYARRYALRYRNNHPLGLDSYPINRVAAGETFSDVVVEVQAEIDGEPRHWVHRVRSMILEDRNGAPESLVLILSDATDWASAEQRFEKTFNANPAPAVICRLGDLRYIKVNQGFLEMTGYARDQVIGRSVYELDVLEDAEHKELAVERLGQGATIPQMQAELRLPEGGSKLVIVAGQPLDINDEDCMLFSFMDLEPRRKAEIALRQSEERFAKSFRLTPVPTLVCSAEQQIVDVNEAFLDTCGYSSEELLGKTVQDIGFIAEPQAAEQLFGRLEKSGNVMGLDLKVRKKGAEQVDCVAYADTVLIQDSPCYLLVLMDISERKRSELELVGAIEEVMRDASWFSQTLIEKLANVRNTRSAQAPAVTSAELTTREREVLGLIYQGLADKEIAAQLQLAPNTVRNHVATLYSKLDVHSRGEAIVWARERGLFAGSAG | failed
MQGGSSGIGYGLKYQARCISDVKADRDHTSFLTGTLSLKEENEVHLLRLSSGGSELLCEGLFSHPNEIWDLASSPFDQRIFSTVFSTGDSYGAAIWQIPEPYGQSNSSTLECVASLDAHVGKINCVLWCPSGNSDKLISMDEQNLVFWSLDSSKKSAEVLSKESAGMRHSLSGGAWNPHDVNSVAATSESSIQFWDLRTMKKNNSIERAHVRNVDYNLKREHILVSADDESGIHLWDLRKTKFPVQELPGHTHWTWAVRCNPEYEELILSVGTDSAVNLWFASASSEHKTSESPVEASRQRVNPLLNSYTDYEDSVYGLAWSSREPWIFASLSYDGRVVIESVKPFLPRR | not failed
MTILTRYIAGAYLKILGLCLASFVAIYLVIDFLEKIGRLLRFQPRWIDIIQYFICKLPEIITQVIPLAVLMSTLLTLGMLSRNSEIVAMRGCGVGLGRISAPLIVIAAAVSLLTIFSNEFVLPSSYRQMRYVDQVLIRKQGTNTFFRQNNIWHKDESAIMMARVFDPGRQALRGITLWRFSDGMRPVSRIDAAEGTWDGARWTFKTVTVRGLAGPSVETRTLASLPAELNLKIEDLKVVDKYADNMGFFKLRDYVRKLKAGGYDTTRYEAQMHSKISLPFASLIMAFLGIPFALRGGRSSGVALGITASIGIGFAYFITNSILISFGQTGILPPLISAWAANVLFALSGIWLAMTLDR | failed
MGDASINIDKETVANYFVIKQGGPINRDHWTVTANTEEKTGEVSAAYPHNGQTISLIDGEINTFWHSKWQGGEVAPPYEIILDMGKENSVSQLGLIARQNALTSMNLEIYAGDDGETWNLIGKYFFDGSIKTEQMVPVKACDARWIRIYIPTLGSGSSVGHLAEIYVYGTDKLEHHHHHH | not failed
MESLTLQPIELISGEVNLPGSKSVSNRALLLAALASGTTRLTNLLDSDDIRHMLNALTKLGVNYRLSADKTTCEVEGLGQAFHTTQPLELFLGNAGTAMRPLAAALCLGQGDYVLTGEPRMKERPIGHLVDALRQAGAQIEYLEQENFPPLRIQGTGLQAGTVTIDGSISSQFLTAFLMSAPLAQGKVTIKIVGELVSKPYIDITLHIMEQFGVQVINHDYQEFVIPAGQSYVSPGQFLVEGDASSASYFLAAAAIKGGEVKVTGIGKNSIQGDIQFADALEKMGAQIEWGDDYVIARRGELNAVDLDFNHIPDAAMTIATTALFAKGTTAIRNVYNWRVKETDRLAAMATELRKVGATVEEGEDFIVITPPTKLIHAAIDTYDDHRMAMCFSLVALSDTPVTINDPKCTSKTFPDYFDKFAQLSR | not failed
MGHGIEVLPDLFCYTIQIVNICFVGNPESNDFVLVDAGMPKCANEIISVAEDRFGTNSRPKAIILTHGHFDHVGGIIELIKYWDVPVYAHQMEIPFLTGQQSYPEPDSTVEGGMIAKMSPLFPNEPIDLGNSIKVLPTDGTVPHMPDFRWIHTPGHTPGHISLFREKDRTLIAGDAFVTVKQEYLYKVITQEQEISGPPRYLTTDWKAAKESVITLEKLKPLSAVTGHGIPMSGELLSTSLKTLAQEFDKIAVPDYGKYVDKKLEHHHHHH | failed
MTQTTVPVIFDLDGTLVDPAGGITGGISAALREMDLPVPEQAVLNSMVGPKLSDSLLHLADVPGELVDETIERYRRHYKETGIGQSKLYPGVFDLLEYFAETGRPVAVATQKPQSIARLVLEHHKIADFFVSIRGAADDESLKANTASGKVEIVGAALKDLHSQPAVMVGDRHQDVAGALANGLDCIGVSWGFAPDGELEEAGAVAVVSTALELRSKIEELDAVRAAALSEVQNDGSL | failed
